The target of the test is F-actin (polymerised from Ca2+-ATP G-actin of rabbit skeletal muscle) (rabbit, UniProt P68135 1-377). Nature of the test: co-sedimentation.

The text below walks through data of publication PMC9798103 (The Journal of Cell Biology, 2022).

B1: N-terminal half of C. elegans RHGF-1 (RHGF-1-N) (domain or fragment)
chain: MRSYEFVTNTPLKLDRHKVYLVDDVAVTRTVPLSQPLSPSTASSSYNMIERCVVVQRQPDGFGLTVNSEFPVYVHTLKQDGAAYCAGVRQGDRIVKVNGMSVSPNNHKEVLQMISNGHNVALTLLGKPPDPISNISFPNQQVEQKIHIADPVLIEASSKSWRQRRNELLGQMVAEERRNVEGLRESSQNGEKIDRALKRIVSLQSQLKQLKPESIISDSQKSLTNLNMDIDSDEEENDVVYLPESQGGPFSNLAELKTHPAHLAVFINYLLLHGNPSSLFFYLITDAYQSAYGTAKEFRRWAFEIFSTFIIPNSPMCIPNSNQSVIQPIDKIMCMTAEHIGDSDTDTLKRIFVPGRQRAVTDINMYLNDFRQKKQLGGQVSESTNQLTHMVRGDMTMEHRVGEQMLFRCLEQCSNSTDFDSCEIRTQSIISSLATVIKIVLGKTSSSSNEKMLDKFPQFMARDKPPGKSRKLPANIKNRIQVKGHSFSINSVNTVHYCYQCRDAIWGMQPWIYFCSNCDVKVHPHCTSALTDACYPVTQSKQKSKSRLSGLIGRSDANDDEDSGSNARHEQPNVKSTSSDSGIGGEHNMDRGLVSRSHSMRYRVATLPQSLSEDKVSIPSSKRDRSVTPSWQRST
For orientation: Kd means the equilibrium constant for the complex coming apart. Regarding B1, the affinity, expressed as Kd, was 5.25 µM.
